# Reference: patent US12247062 (1GLOBE BIOMEDICAL, dated 2025)
# Molecular target: T1, rituximab (RITUXAN), coated on CD20+ Daudi cells
# T1 construct: also called MABTHERA; ZYTUX
# Assay: flow cytometry titrations compared: rituximab-coated Daudi cells against Jurkat cells (CD3)
# Text: Figure 12: FIG. 12 schematically depicts an assay using Daudi cells to test the ability of an Adapter-like ADCC Enhancer of the present invention to bind CD20+ target cells coated with RITUXAN (rituximab). Figure 13: FIG. 13 illustrates FACS data showing, in an assay according to FIG. 12, the binding between Daudi cells and the ADCC Enhancer of the invention before purification ("Sample Load") and after purification ("Purified Protein"). Figure 14: FIG. 14 illustrates FACS data showing titration of binding between Daudi cells and the ADCC Enhancer of the invention at various concentrations. The volume of the Enhancer in microliters are indicated in the upper right corner of the top six diagrams as: 50, 25, 12.5, 6.25, 3.13 and 1.56 microliters. The bottom diagram summarizes the data. CD20+ Daudi cells were coated with RITUXAN (rituximab) (anti-CD20 antibody) and excess RITUXAN (rituximab) was removed by washing the cells with PBS. RITUXAN (rituximab)-coated cells were incubated with various amounts of the Enhancer, and excess Enhancer was removed by washing the cells in PBS. Bound Enhancer proteins were detected using fluorescent anti-human CD64 antibody.
# With tagged protein, binding affinity can also be detected using a fluorescently tagged anti-tag antibody. This approach can also be used to detect binding of the CD64 domain by rituximab-coated CD20⁺ Daudi cells (see FIG. 12). […]
binder,measurement,value
"CD64-dhOKT3 fusion protein (Adapter-like ADCC Enhancer) (other, Expressed in Expi293 cells and used as culture supernatant or after IgG Sepharose purification; Untagged; also called Soluble Universal ADCC Enhancer Protein; SUAEP) QVDTTKAVITLQPPWVSVFQEETVTLHCEVLHLPGSSSTQWFLNGTATQTSTPSYRITSASVNDSGEYRCQRGLSGRSDPIQLEIHRGWLLLQVSSRVFTEGEPLALRCHAWKDKLVYNVLYYRNGKAFKFFHWNSNLTILKTNISHNGTYHCSGMGKHRYTSAGISVTVKELFPAPVLNASVTSPLLEGNLVTLSCETKLLLQRPGLQLYFSFYMGSKTLRGRNTSSEYQILTARREDSGLYWCEAATEDGNVLKRSPELELQVLSSGGGGSQVQLVQSGGGVVQPGRSLRLSCKSSGYTFTRYTMHWVRQAPGKGLEWIGYINPSRGYTNYNQKVKDRFTISRDNSKNTAFLQMDSLRPEDTGVYFCARYYDDHYCLDYWGQGTPVTVSSVEGGSGGSGGSGGSGGVDDIQMTQSPSSLSASVGDRVTITCRASSSVSYMNWYQQTPGKAPKRWIYDTSKVASGVPSRFSGSGSGTDYTFTISSLQPEDIATYYCQQWSSNPLTFGQGTKLQIT",fold stronger Fc- or antibody-binding than CD3-binding,~30 fold
